According to FireProtDB (doi:10.1021/bi00015a036):

B1: Barstar, P11540 (parent)
chain: MKKAVINGEQIRSISDLHQTLKKELALPEYYGENLDALWDCLTGWVEYPLVLEWRQFEQSKQLTENGAESVLQVFREAKAEGCDITIILS

Variants of: B1
Conditions: Bacillus amyloliquefaciens; pH 7; Thermal; DSC; PIPES 50 mM; reversible: yes (~80%); structure 1BTA; whole UniProt chain shown

Q: For MKKAVINGEQIRSISDLHQTLKKELALPEYYGENLDALWDALTGWVEYPLVLEWRQFEQSKQLTENGAESVLQVFREAKAEGADITIILS [C41A C83A], which Tm is on record?
A: 74 °C

Q: And the “unfolding enthalpy (calorimetric)” value?
A: 63.4 kcal/mol

Same assay, conditions: Bacillus amyloliquefaciens; pH 10; Thermal; DSC; CAPS 50 mM; reversible: yes (~80%); structure 1BTA; whole UniProt chain shown

Q: Which Tm does the source give for MKKAVINGEQIRSISDLHQTLKKELALPEYYGENLDALWDALTGWVEYPLVLEWRQFEQSKQLTENGAESVLQVFREAKAEGADITIILS [C41A C83A] here?
A: 68.6 °C

Q: What about the “unfolding enthalpy (calorimetric)” value of the same variant?
A: 58.6 kcal/mol

Same assay, conditions: Bacillus amyloliquefaciens; pH 10.3; Thermal; DSC; CAPS 50 mM; reversible: yes (~80%); structure 1BTA; whole UniProt chain shown

Q: With MKKAVINGEQIRSISDLHQTLKKELALPEYYGENLDALWDALTGWVEYPLVLEWRQFEQSKQLTENGAESVLQVFREAKAEGADITIILS [C41A C83A] as the variant, how does the Tm read?
A: 67 °C

Q: And the “unfolding enthalpy (calorimetric)” value?
A: 57.4 kcal/mol

Same assay, conditions: Bacillus amyloliquefaciens; pH 10.5; Thermal; DSC; CAPS 50 mM; reversible: yes (~80%); structure 1BTA; whole UniProt chain shown

Q: Which Tm does the source give for MKKAVINGEQIRSISDLHQTLKKELALPEYYGENLDALWDALTGWVEYPLVLEWRQFEQSKQLTENGAESVLQVFREAKAEGADITIILS [C41A C83A] here?
A: 65.7 °C

Q: And the “unfolding enthalpy (calorimetric)” value?
A: 56.2 kcal/mol
